Experimental data published in the RNAGym collection of RNA variant scans (doi:10.7554/elife.80360).

B1: Hairpin Ribozyme (parent)
chain: GUCCUCUUUCACGUGCGCGUGAAAGAGAGAAGUGAACCAGAGAAACACACGUUGUGGUAUAUUACCUGGUA

Variants of: B1
Test: self-cleavage, relative activity (ratio to wild type); higher = more cleavage; co-transcriptional

| Variant | self-cleavage |
| --- | --- |
| C6U A26C | 0.29 |
| C6U A26G | 0.31 |
| U5C U55G | 0.351 |
| C6A G17A | 0.663 |
| U7A A11G | 0.855 |
| U7A A11U | 0.649 |
| C6A A28U | 0.365 |
| C6A A28G | 0.811 |
| U5C U14G | 0.385 |
| U5C U14C | 0.557 |
| C6G A31C | 0.0766 |
| C6G A31U | 0.0803 |
| U7A A24G | 0.702 |
| C6U C50U | 0.386 |
| C6U C50A | 0.24 |
| C6U C50G | 0.299 |
| C6U U58C | 0.893 |
| C6U U58G | 0.663 |
| C6A A71C | 1.14 |
| U7A G29A | 0.099 |
| U7A G29U | 0.178 |
| C6A U14G | 0.499 |
| U5G G34U | 1.08 |
| U7C A24G | 0.628 |

| Variant | self-cleavage |
| --- | --- |
| C6G A64C | 0.123 |
| C6G A64G | 0.365 |
| C6G A64U | 0.105 |
| U5G A64U | 0.161 |
| C6A G54C | 0.209 |
| U5G U60A | 0.161 |
| U5G U60C | 0.593 |
| U7A G13A | 0.962 |
| U7A A49G | 0.49 |
| U7A A49U | 0.16 |
| U7A G25C | 0.402 |
| C6G A35U | 0.464 |
| U5G G68A | 0.201 |
| U7A A59C | 0.136 |
| U7A A59G | 0.194 |
| U5G A43U | 0.155 |
| U5G A43C | 0.269 |
| C6U A39U | 0.381 |
| C6G A26C | 0.22 |
| U5G U58G | 0.0427 |
| C6G A23U | 0.344 |
| C6G A23G | 0.446 |
| C6A A24G | 0.45 |
| C6A G27C | 0.118 |

| Variant | self-cleavage |
| --- | --- |
| U7A A41U | 1.28 |
| C6A C48U | 0.158 |
| U5C U63G | 0.0578 |
| U5G G17C | 0.35 |
| C6G A22C | 0.342 |
| U7A A43G | 0.222 |
| U5C U62G | 0.159 |
| U7A U62G | 0.0626 |
| C6A U55G | 0.14 |
| C6A U55A | 0.202 |
| U7A A71U | 0.814 |
| U7A A71G | 0.895 |
| C6G G42U | 0.113 |
| C6A G34A | 0.817 |
| C6A C16A | 0.561 |
| U7A U53G | 0.688 |
| C6U U14G | 0.791 |
| C6U U14A | 0.853 |
| C6U U14C | 0.932 |
| C6A G29A | 0.129 |
| C6A G29U | 0.124 |
| C6A U20G | 0.518 |
| U7A U8G | 0.925 |
| U5G A11C | 0.175 |

| Variant | self-cleavage |
| --- | --- |
| C6U U9C | 0.369 |
| C6U U9G | 0.438 |
| C6G G57U | 0.238 |
| U7A A23C | 0.894 |
| C6A C65U | 0.265 |
| C6A C65G | 0.158 |
| U5C U7A | 0.395 |
| U5C U7G | 0.365 |
| U5G G40C | 0.14 |
| U5G G40U | 0.13 |
| U7A U33C | 0.151 |
| C6U A44G | 0.132 |
| C6U A44C | 0.119 |
| C6U U52G | 0.797 |
| U5G A39G | 0.0943 |
| C6G U62C | 0.116 |
| C6U G51U | 0.88 |
| C6G U7A | 0.337 |
| C6U C10G | 0.416 |
| C6U G69A | 0.379 |
| U5G A30G | 0.144 |
| U7A G54U | 0.589 |
| U7A A30C | 0.121 |
| U7A A30U | 0.0668 |

| Variant | self-cleavage |
| --- | --- |
| C6G U60C | 0.618 |
| U7C A23C | 0.455 |
| C6A G21C | 0.364 |
| C6G C66G | 0.166 |
| C6G A36G | 0.768 |
| C6U G19U | 0.715 |
| C6A U60A | 0.541 |
| C6U C18U | 0.82 |
| C6U C18G | 0.775 |
| U5G C38A | 0.12 |
| U5G A71C | 0.732 |
| U5C U33G | 0.208 |
| U5C U33C | 0.0316 |
| U5C U33A | 0.149 |
| U5G A61U | 0.108 |
| U5G A61C | 0.112 |
| C6U G56A | 0.193 |
| C6G U20C | 0.368 |
| C6G U20G | 0.248 |
| C6U U20A | 0.764 |
| C6U U20C | 0.806 |
| C6A G19U | 0.505 |
| C6U C37G | 0.372 |
| U5G A41G | 0.129 |

| Variant | self-cleavage |
| --- | --- |
| U5G A41U | 0.607 |
| U5G A41C | 0.571 |
| C6U A41G | 0.768 |
| C6U U33G | 0.126 |
| C6A C50A | 0.223 |
| C6A C50G | 0.175 |
| C6G A11C | 0.45 |
| C6G A11U | 0.314 |
| U7A G56A | 0.182 |
| C6A C10G | 0.377 |
| C6G C10G | 0.277 |
| C6U A22G | 0.796 |
| U5C U70C | 0.277 |
| C6U U62C | 0.188 |
| C6A U67G | 0.173 |
| C6A G51U | 0.58 |
| U7A G19U | 0.581 |
| U7A G19C | 0.711 |
| C6U G21C | 0.597 |
| C6A U7C | 0.609 |
| C6G U70A | 0.399 |
| C6G U70G | 0.361 |
| C6U A45G | 0.135 |
| C6U A45U | 0.194 |

| Variant | self-cleavage |
| --- | --- |
| U5G A28U | 0.242 |
| U5G A28C | 0.0791 |
| C6U G34C | 1.1 |
| C6U G34A | 0.863 |
| U5G A23G | 0.372 |
| U7A A64C | 0.194 |
| C6G A71C | 0.855 |
| U7A C37G | 0.342 |
| U7A A35G | 0.796 |
| C6U A23G | 0.768 |
| U5G G57U | 0.163 |
| U5G G57A | 0.127 |
| C6U U67A | 0.151 |
| C6U U67C | 0.222 |
| C6A C38G | 0.149 |
| C6A C38U | 0.354 |
| C6U U7A | 0.515 |
| C6U A35U | 0.765 |
| C6G A59U | 0.192 |
| C6G G34U | 0.982 |
| U5G | 0.324 |
| C6U G54U | 0.371 |
| C6U G54A | 0.59 |
